From paper PMC9131517, “Enzymatic N-Allylation of Primary and Secondary Amines Using Renewable Cinnamic Acids Enabled by Bacterial Reductive Aminases” (ACS Sustainable Chemistry & Engineering, 2022)

Columns and labels:
Assay in all cases: initial rate of NADPH consumption
Type in all cases: biochemical, compost metagenome
Details in all cases: 80 mM cyclopropylamine, 0.3 mM NADPH, pH 7.5 (100 mM NaPi), 30 °C
[1] = substrate: O=C/C=C/c1ccccc1
Text: (§1) initial rate of NADPH consumption on BacRedAm

[2] = substrate: O=C1CCCCC1
Text: as §1

[3] = substrate: O=CCCc1ccccc1
Text: as §1

B1: BacRedAm (compost metagenome) (protein)
chain: MREPIVSAHTERAVESRGADRGSAVTVIGLGSMGSALAGAVLEAGYPTTVWNRTAGKAEPLVRRGAARAATVAEAVSASPTVIACVLDYRALREILSTAGDALAGRTVVNLTNGTPTEARETAAWVEGHGARYLDGGIMAVPEMIGGAESLVLYSGSAEAFETVEPVLRRFGSAMYLGADPGLASLHDLALLAGMYGLFAGFLHAVALVGTEGVRATEFTSSLLIPWLQAMTATLPEAAAQIDAGDYAATGSRLDMQAVALANIVEASRSQGIRPDLMLPIQALVERRVAKGGGGEDIAAVVEEVRG
notes: recombinant, expressed in E. coli BL21, purified
- Km [1]: 2580 µM
- kcat [1]: 0.11 s⁻¹
- Km [2]: 13320 µM
- kcat [2]: 5.12 s⁻¹
- Km [3]: 2980 µM
- kcat [3]: 1.45 s⁻¹
